Holding throughout (format): biochemical
For assay [1], the target named is T1, FXa (Homo sapiens, UniProt P00742).
T1 construct: purchased Enzyme Research Laboratories
Nature of the assay: Unaccelerated ZPI–FXa reactions: kinetics and stoichiometry of inhibition. The note with it: for ka,app: absence of PZ, 2.5 mM CaCl2, pH 7.4, 25 °C. How it is done:
(§1) Apparent second-order rate constants for unaccelerated and H50-accelerated ZPI–FXa reactions were measured in the absence and presence of the optimal H50 concentration under pseudo–first-order conditions by analyzing full ZPI–FXa reaction progress curves over the ZPI concentration range of 10 to 900 nM with ∼0.5 nM FXa. Full reaction progress curves were also measured for ZPI–FXa reactions in the presence of PZ equimolar with ZPI, 25 μM lipid, and 5 mM CaCl2, as a function of the ZPI concentration in the range of 10 to 40 nM. Identical reaction mixtures were quenched at varying reaction times with substrate, and the time course of protease inactivation was measured from the decrease in initial rates of substrate hydrolysis. The first-order rate of decrease in protease activity with time was computer fit by a single exponential decay function with a nonzero end point and kobs obtained from the fitted exponential decay constant. Apparent second-order association rate constants (ka,app) were obtained from the slopes of linear plots of kobs versus the ZPI concentration according to the equation, kobs=kd+ka,app × [ZPI]0
(§2) In which kd represents the rate constant for ZPI–FXa complex dissociation and [ZPI]o is the total ZPI concentration. kd was fixed at the experimentally determined value of 10^−4 s^−1 for WT and ZPI mutants as described ([18]).
(§3) Fixed concentrations of FXa (50–100 nM FXa) were reacted with increasing concentrations of ZPI, ranging from a approximately threefold to sevenfold molar excess, in the absence of cofactors or in the presence of either 1 μM H50 or PZ equimolar with ZPI, 25 μM lipid, and 5 mM CaCl2, in kinetics buffer at 25 °C in reaction volumes of 50 μl. After allowing sufficient time to reach a reaction end point, based on measured second-order associate rate constants (∼5–30 min), remaining proteolytic activity was measured by reacting an aliquot (5–20 μl) of the reaction mixtures with 1 ml of 100 μM Spectrozyme fXa (American Diagnostica) containing 50 μg/ml Polybrene and 5 mM EDTA and monitoring the rate of absorbance change at 405 nm. The apparent SI was determined from the fitted abscissa intercept of a linear plot of residual protease activity against the molar ratio of inhibitor to protease ([18]). Because the ZPI–PZ complex dissociates to a small extent over the reaction time, apparent SIs depend on the time of incubation. To correct for such complex dissociation, apparent SIs were multiplied by the factor, exp (−kd × t), where kd is the measured complex dissociation rate constant of 10^−4 s^−1 and t the fixed reaction time. Simulations verified the validity of this correction for small extents of dissociation. Reported SIs are average values of at least two independent measurements at different reaction times.

The target of assay [2] is T1, FXa. Nature of the assay: H50 heparin-accelerated ZPI–FXa reactions: kinetics and stoichiometry of inhibition. The note with it: for SI / ka,app × SI / ka,app × SI relative to WT: 1 μM H50; for ka,app: 1 μM H50, 2.5 mM CaCl2, pH 7.4, 25 °C; for H50 rate enhancement: ratio of heparin-accelerated to unaccelerated ka,app × SI. The protocol:
Heparin accelerating effects on the kinetics of ZPI–FXa reactions were evaluated as a function of heparin concentration under pseudo–first-order conditions (i.e., with a large molar excess of inhibitor over protease) by incubating reaction mixtures of 100 μl containing 70 nM ZPI and ∼0.5 nM FXa in the absence or presence of varying levels of H50 ranging from 10^−9 to 10^−4 M in 20 mM Tris buffer (pH 7.4), 0.1 M NaCl, 0.1% PEG 8000, 0.1 mg/ml BSA, and 2.5 mM CaCl2 at 25 °C for reaction times of 2 to 5 min. Reactions were quenched by adding 1 ml of 50 μM Pefafluor FXa substrate (Centerchem, Inc) containing 50 μg/ml polybrene and 5 mM EDTA. The initial linear rate of substrate hydrolysis was monitored at an excitation wavelength of 380 nm and an emission wavelength of 440 nm. The observed pseudo–first-order rate constant for reactions (kobs) was calculated from the equation, kobs=In([vo-v∞]/[vt-v∞])/t
where vt and v∞ are the initial velocities of protease hydrolysis of the substrate after reaction with ZPI for the fixed reaction time and after reaching the reaction end point, respectively, vo is the velocity measured in control reactions without ZPI, and t is the fixed reaction time. The dependence of kobs on heparin concentration was computer fit by nonlinear least squares analysis by the ternary complex bridging model equation ([10]).
as §1, §2
as §3, with “Simulations verified the validity of this correction for small extents of dissociation. Reported SIs are average values of at least two independent measurements at different reaction times.” left out

The target of assay [3] is T1, FXa. Nature of the assay: PZ-accelerated ZPI–FXa reactions: kinetics and stoichiometry of inhibition. The conditions noted are these: for PZ enhancement: ratio of PZ-accelerated to unaccelerated ka,app × SI; for SI / ka,app × SI / ka,app × SI relative to WT: PZ-accelerated; for ka,app: equimolar PZ, 25 μM phospholipid, 5 mM CaCl2, pH 7.4, 25 °C. How it is done:
as §1, §2, §3

Experimental findings from article PMC9190012, “Heparin activation of protein Z-dependent protease inhibitor (ZPI) allosterically blocks protein Z activation through an extended heparin-binding site” (The Journal of Biological Chemistry, 2022) are described below.

T1 sequence (P00742 235-488 limits assumed): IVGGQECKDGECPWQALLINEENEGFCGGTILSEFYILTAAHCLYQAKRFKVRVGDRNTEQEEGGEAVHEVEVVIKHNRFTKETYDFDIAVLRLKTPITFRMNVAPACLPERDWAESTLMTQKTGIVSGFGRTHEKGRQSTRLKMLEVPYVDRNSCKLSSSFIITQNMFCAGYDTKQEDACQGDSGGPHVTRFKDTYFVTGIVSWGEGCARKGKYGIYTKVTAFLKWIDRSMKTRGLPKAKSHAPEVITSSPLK
T1 sequence (P00742 41-179 limits assumed): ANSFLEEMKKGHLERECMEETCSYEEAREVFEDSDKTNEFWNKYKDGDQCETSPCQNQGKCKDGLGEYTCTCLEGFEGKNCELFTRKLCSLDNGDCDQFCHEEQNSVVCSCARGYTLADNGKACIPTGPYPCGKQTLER

B1: D293A: ZPI mutant in the PZ-binding site hot spot residue (protein, UniProt Q9UK55 22-444, looked up, variant D293A)
Protein Z-dependent protease …: LAPSPQSPETPAPQNQTSRVVQAPKEEEEDEQEASEEKASEEEKAWLMASRQQLAKETSNFGFSLLRKISMRHDGNMVFSPFGMSLAMTGLMLGATGPTETQIKRGLHLQALKPTKPGLLPSLFKGLRETLSRNLELGLTQGSFAFIHKDFDVKETFFNLSKRYFDTECVPMNFRNASQAKRLMNHYINKETRGKIPKLFDEINPETKLILVDYILFKGKWLTPFDPVFTEVDTFHLDKYKTIKVPMMYGAGKFASTFDKNFRCHVLKLPYQGNATMLVVLMEKMGDHLALEAYLTTDLVETWLRNMKTRNMEVFFPKFKLDQKYEMHELLRQMGIRRIFSPFADLSELSATGRNLQVSRVLQRTVIEVDERGTEAVAGILSEITAYSMPPVIKVDRPFHFMIYEETSGMLLFLGRVVNPTLL
Regarding B1, in assay [1], the SI amounted to 2.6 ± 0.1 moles ZPI/mole FXa, the “ka,app × SI” value was 1.1 ± 0.1 × 10^4 M^−1 s^−1, the “ka,app × SI relative to WT” value is reported as “(0.69)” and the “ka,app” value is listed as 4.1 ± 0.2 × 10^3 M^−1 s^−1. For the same molecule, in assay [2], the SI stood at 1.7 ± 0.1 moles ZPI/mole FXa, the “ka,app × SI” value was 8.5 ± 0.6 × 10^5 M^−1 s^−1, the “ka,app × SI relative to WT” value is given as “(0.71)” and the “ka,app” value is listed as 5.0 ± 0.2 × 10^5 M^−1 s^−1. Also, the PZ enhancement entry in assay [3] is listed as “greatly abrogated the acceleration”.

B2: WT: recombinant wild-type protein Z-dependent protease inhibitor (serpin A10) expressed in Escherichia coli (protein, UniProt Q9UK55 22-444, looked up)
Protein Z-dependent protease …: LAPSPQSPETPAPQNQTSRVVQAPKEEEEDEQEASEEKASEEEKAWLMASRQQLAKETSNFGFSLLRKISMRHDGNMVFSPFGMSLAMTGLMLGATGPTETQIKRGLHLQALKPTKPGLLPSLFKGLRETLSRNLELGLTQGSFAFIHKDFDVKETFFNLSKRYFDTECVPMNFRNASQAKRLMNHYINKETRGKIPKLFDEINPETKLILVDYILFKGKWLTPFDPVFTEVDTFHLDKYKTIKVPMMYGAGKFASTFDKNFRCHVLKLPYQGNATMLVVLMEKMGDHLALEDYLTTDLVETWLRNMKTRNMEVFFPKFKLDQKYEMHELLRQMGIRRIFSPFADLSELSATGRNLQVSRVLQRTVIEVDERGTEAVAGILSEITAYSMPPVIKVDRPFHFMIYEETSGMLLFLGRVVNPTLL
Regarding B2, in assay [1], the SI was determined as 2.8 ± 0.4 moles ZPI/mole FXa, the “ka,app × SI” value was 1.6 ± 0.3 × 10^4 M^−1 s^−1, the “ka,app × SI relative to WT” value is “(1)” and the “ka,app” value was 5.6 ± 0.3 × 10^3 M^−1 s^−1. In assay [2], the SI was determined as 2.4 ± 0.1 moles ZPI/mole FXa, the “ka,app × SI” value is reported as 1.2 ± 0.2 × 10^6 M^−1 s^−1, the “ka,app × SI relative to WT” value is listed as “(1)” and the “ka,app” value is reported as 5.1 ± 0.4 × 10^5 M^−1 s^−1. Also, the H50 rate enhancement in assay [2] is about 75 fold. In addition, in assay [3], the SI worked out at 4.0 ± 0.3 moles ZPI/mole FXa, the “ka,app × SI” value is reported as 4.4 ± 0.3 × 10^7 M^−1 s^−1, the “ka,app × SI relative to WT” value is listed as “(1.0)” and the “ka,app” value is given as 10.9 ± 0.1 × 10^6 M^−1 s^−1. In addition, in assay [3], the PZ enhancement was found to be 2750.

B3: K260A/R263A/K308A/R310A: ZPI helix H site quadruple mutant (protein, UniProt Q9UK55 22-444, looked up, variant K260A R263A K308A R310A)
Protein Z-dependent protease …: LAPSPQSPETPAPQNQTSRVVQAPKEEEEDEQEASEEKASEEEKAWLMASRQQLAKETSNFGFSLLRKISMRHDGNMVFSPFGMSLAMTGLMLGATGPTETQIKRGLHLQALKPTKPGLLPSLFKGLRETLSRNLELGLTQGSFAFIHKDFDVKETFFNLSKRYFDTECVPMNFRNASQAKRLMNHYINKETRGKIPKLFDEINPETKLILVDYILFKGKWLTPFDPVFTEVDTFHLDKYKTIKVPMMYGAGKFASTFDANFACHVLKLPYQGNATMLVVLMEKMGDHLALEDYLTTDLVETWLRNMATANMEVFFPKFKLDQKYEMHELLRQMGIRRIFSPFADLSELSATGRNLQVSRVLQRTVIEVDERGTEAVAGILSEITAYSMPPVIKVDRPFHFMIYEETSGMLLFLGRVVNPTLL
On to B3, for which, in assay [1], the SI amounted to 4.0 ± 0.8 moles ZPI/mole FXa, the “ka,app × SI” value is listed as 4.5 ± 1.8 × 10^3 M^−1 s^−1, the “ka,app × SI relative to WT” value is recorded as “(0.28)” and the “ka,app” value is given as 1.1 ± 0.2 × 10^3 M^−1 s^−1. Besides, in assay [2], the SI turned out to be 4.1 ± 0.6 moles ZPI/mole FXa, the “ka,app × SI” value is on record as 7.6 ± 1.3 × 10^4 M^−1 s^−1, the “ka,app × SI relative to WT” value was “(0.06)” and the “ka,app” value is given as 1.8 ± 0.1 × 10^4 M^−1 s^−1. For the same molecule, the H50 rate enhancement in assay [2] is about 17 fold. Further, in assay [3], the SI was determined as 6.6 ± 0.4 moles ZPI/mole FXa, the “ka,app × SI” value was 2.7 ± 0.4 × 10^7 M^−1 s^−1, the “ka,app × SI relative to WT” value was “(0.61)” and the “ka,app” value is recorded as 4.1 ± 0.3 × 10^6 M^−1 s^−1. Further, the PZ enhancement in assay [3] worked out at 6000.

B4: K260A/R263A: ZPI helix H site double mutant (protein, UniProt Q9UK55 22-444, looked up, variant K260A R263A)
Protein Z-dependent protease …: LAPSPQSPETPAPQNQTSRVVQAPKEEEEDEQEASEEKASEEEKAWLMASRQQLAKETSNFGFSLLRKISMRHDGNMVFSPFGMSLAMTGLMLGATGPTETQIKRGLHLQALKPTKPGLLPSLFKGLRETLSRNLELGLTQGSFAFIHKDFDVKETFFNLSKRYFDTECVPMNFRNASQAKRLMNHYINKETRGKIPKLFDEINPETKLILVDYILFKGKWLTPFDPVFTEVDTFHLDKYKTIKVPMMYGAGKFASTFDANFACHVLKLPYQGNATMLVVLMEKMGDHLALEDYLTTDLVETWLRNMKTRNMEVFFPKFKLDQKYEMHELLRQMGIRRIFSPFADLSELSATGRNLQVSRVLQRTVIEVDERGTEAVAGILSEITAYSMPPVIKVDRPFHFMIYEETSGMLLFLGRVVNPTLL
For B4, in assay [1], the SI is recorded as 2.4 ± 0.5 moles ZPI/mole FXa, the “ka,app × SI” value is listed as 1.3 ± 0.4 × 10^4 M^−1 s^−1, the “ka,app × SI relative to WT” value is reported as “(0.81)” and the “ka,app” value is given as 5.4 ± 0.3 × 10^3 M^−1 s^−1. Also, in assay [2], the SI is 2.5 ± 0.4 moles ZPI/mole FXa, the “ka,app × SI” value is 2.9 ± 0.8 × 10^5 M^−1 s^−1, the “ka,app × SI relative to WT” value is given as “(0.24)” and the “ka,app” value is reported as 1.2 ± 0.1 × 10^5 M^−1 s^−1. The H50 rate enhancement in assay [2] is on record as about 22 fold. For the same molecule, in assay [3], the SI is 2.6 ± 0.3 moles ZPI/mole FXa, the “ka,app × SI” value is 1.5 ± 0.2 × 10^7 M^−1 s^−1, the “ka,app × SI relative to WT” value is “(0.34)” and the “ka,app” value was 5.6 ± 0.2 × 10^6 M^−1 s^−1. Moreover, the PZ enhancement in assay [3] was found to be 1153.
